Columns and labels:
[1] = target: Chlamydomonas reinhardtii CFAP410 C-terminal domain, mutant A219E (Chlamydomonas reinhardtii); test: SEC-MALS
[2] = target: Chlamydomonas reinhardtii CFAP410 C-terminal domain, wild type (Chlamydomonas reinhardtii); test: SEC-MALS
[3] = target: Chlamydomonas reinhardtii CFAP410 C-terminal domain, wild type (Chlamydomonas reinhardtii); test: crystal structure
[4] = target: Homo sapiens CFAP410 C-terminal domain, wild type (Homo sapiens) (UniProt O43822); test: crystal structure
[5] = target: Trypanosoma brucei CFAP410 C-terminal domain, wild type (Trypanosoma brucei); test: crystal structure

Chlamydomonas reinhardtii CFAP410 C-terminal domain, mutant A219E (peptide)
stoichiometry N [1]: 2

Chlamydomonas reinhardtii CFAP410 C-terminal domain, wild type (peptide)
stoichiometry N [2]: 4 | stoichiometry N [3]: 4

Homo sapiens CFAP410 C-terminal domain, wild type (from UniProt O43822 212-246) (peptide)
stoichiometry N [4]: 4

Trypanosoma brucei CFAP410 C-terminal domain, wild type (peptide)
stoichiometry N [5]: 4

Reference: paper doi:10.1101/2022.09.21.508879
